Test results from patent publication US20070207507A1.
Bridges are numbered along the chain shown (N, C = ends). Where no end group is shown, it is not given here.

How the values were obtained:
myeloperoxidase [1] = experiment: 99mTc-phage incubated with 125I-myeloperoxidase, separated on a spin column / Sepharose 6B column
myeloperoxidase [2] = experiment: SE-HPLC on a Superose-12 column, 5 min incubation
myeloperoxidase [3] = experiment: SE-HPLC on a Superose-12 column, 2 hours incubation
myeloperoxidase [4] = experiment: SPR (Biacore 1000), biotinylated myeloperoxidase on a streptavidin chip, peptide at 1 uM, fitted curve
TAG-72 = experiment: 99mTc-labeled phage on LS-174T colon cancer cells expressing TAG-72

myeloperoxidase, sequence (P05164 165-745): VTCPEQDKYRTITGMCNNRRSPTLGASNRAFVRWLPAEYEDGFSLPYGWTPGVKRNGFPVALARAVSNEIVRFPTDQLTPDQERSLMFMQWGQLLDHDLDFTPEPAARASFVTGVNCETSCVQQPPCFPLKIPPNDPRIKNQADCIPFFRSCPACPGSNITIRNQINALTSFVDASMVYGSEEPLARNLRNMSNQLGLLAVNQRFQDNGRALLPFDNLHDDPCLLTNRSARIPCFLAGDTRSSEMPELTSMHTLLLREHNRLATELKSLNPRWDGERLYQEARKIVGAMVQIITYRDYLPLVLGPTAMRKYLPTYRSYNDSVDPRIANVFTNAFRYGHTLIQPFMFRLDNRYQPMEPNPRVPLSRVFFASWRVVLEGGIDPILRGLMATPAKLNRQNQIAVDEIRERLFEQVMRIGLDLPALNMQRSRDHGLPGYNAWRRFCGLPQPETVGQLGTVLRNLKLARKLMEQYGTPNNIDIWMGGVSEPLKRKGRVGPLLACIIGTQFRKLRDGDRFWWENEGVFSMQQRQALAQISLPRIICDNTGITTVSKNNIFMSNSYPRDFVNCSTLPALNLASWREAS

In the case of AMPVCSLDRKACTAYQ (disulfide 5-12; also: phage labelled with 99mTc via MAG3) [phage clone MPO-1 (f88-4/Cys6 phage displaying a 16 mer cysteine-constrained peptide in pVIII)], the Relative Binding (% bound after subtraction of control phage MPO-4) (myeloperoxidase [1]) is reported as 3.9%.

RSGQCHDDTWNCLACVGGSGGGC (also: cysteine-constrained, Cys pairing not given here) [MPO-17 twenty-three mer synthetic polypeptide] showed a UV peak for the enzyme, % of total protein at 5 min of incubation (% of total protein) (myeloperoxidase [2]) of 16, a UV peak for the enzyme, % of total protein after 2 hours incubation (% of total protein) (myeloperoxidase [3]) of 46 and a Kd (myeloperoxidase [4]) of 900 nM.

HVLGCSYATNSCAHNA (disulfide 5-12; also: phage labelled with 99mTc via MAG3) [phage clone MPO-6 (f88-4/Cys6 phage displaying a 16 mer cysteine-constrained peptide in pVIII)] showed a Relative Binding (% bound after subtraction of control phage MPO-4) (myeloperoxidase [1]) of 5.8%.

B1: phage clone A3-10 (f88-4/Cys6 phage displaying a 16 mer cysteine-constrained peptide in pVIII) (peptide)
peptide: NPGTCKDKWIECLLNG
modifications: disulfide 5-12 (inferred); also: displayed on phage, cysteine-constrained, 99mTc-labelled in binding assays
For B1, the Relative Binding (fold over control phage A3-12) (TAG-72) was 4.3 fold.

B2: phage clone A3-19 (f88-4/Cys6 phage displaying a 16 mer cysteine-constrained peptide in pVIII) (peptide)
peptide: NLIWCRKEFARCTSDM
modifications: disulfide 5-12 (inferred); also: displayed on phage, cysteine-constrained, 99mTc-labelled
B2 showed a Relative Binding (fold over control phage A3-12) (TAG-72) of 1.5 fold.

B3: phage clone A3-21 (f88-4/Cys6 phage displaying a 16 mer cysteine-constrained peptide in pVIII) (peptide)
peptide: LKNYCRKCSNRCTPTG
modifications: disulfide (positions not given here); also: displayed on phage, cysteine-constrained, 99mTc-labelled
With B3 the Relative Binding (fold over control phage A3-12) (TAG-72) was 1 fold.

B4: control phage clone A3-12 (f88-4/Cys6 phage displaying a 16 mer cysteine-constrained peptide in pVIII) (peptide)
peptide: MNYYCHQTTKTCRTHS
modifications: disulfide 5-12 (inferred); also: displayed on phage, cysteine-constrained, 99mTc-labelled
With B4 the Relative Binding (the control phage, the reference itself) (TAG-72) was 1 fold.

In the case of TVMLCNPMEQGCRWMC (disulfide 5-12; also: phage labelled with 99mTc via MAG3) [phage clone MPO-15 (f88-4/Cys6 phage displaying a 16 mer cysteine-constrained peptide in pVIII)], the Relative Binding (% bound after subtraction of control phage MPO-4) (myeloperoxidase [1]) is reported as 4.5%.

RSGQCHDDTWNCLACV (disulfide 5-12; also: phage labelled with 99mTc via MAG3) [phage clone MPO-17 (f88-4/Cys6 phage displaying a 16 mer cysteine-constrained peptide in pVIII)] was tested, and the Relative Binding (% bound after subtraction of control phage MPO-4) (myeloperoxidase [1]) was 8%.
